Substrate in this series: NCCc1ccc(O)cc1
As to the kind of experiment: purified protein. The format is biochemical, Chromobacterium violaceum. The note with it: apparent; transaminase reaction; 0.1 eq. PLP, 1 eq. pyruvate as amine acceptor; substrate 4a taken from context.

For orientation: Km means the substrate concentration at which the rate is half of its maximum. One may read the kcat as the maximal rate divided by the concentration of active sites.

B1: CvTAm (Chromobacterium violaceum ATCC 12472) (protein)
chain: MQKQRTTSQWRELDAAHHLHPFTDTASLNQAGARVMTRGEGVYLWDSEGNKIIDGMAGLWCVNVGYGRKDFAEAARRQMEELPFYNTFFKTTHPAVVELSSLLAEVTPAGFDRVFYTNSGSESVDTMIRMVRRYWDVQGKPEKKTLIGRWNGYHGSTIGGASLGGMKYMHEQGDLPIPGMAHIEQPWWYKHGKDMTPDEFGVVAARWLEEKILEIGADKVAAFVGEPIQGAGGVIVPPATYWPEIERICRKYDVLLVADEVICGFGRTGEWFGHQHFGFQPDLFTAAKGLSSGYLPIGAVFVGKRVAEGLIAGGDFNHGFTYSGHPVCAAVAHANVAALRDEGIVQRVKDDIGPYMQKRWRETFSRFEHVDDVRGVGMVQAFTLVKNKAKRELFPDFGEIGTLCRDIFFRNNLIMRACGDHIVSAPPLVMTRAEVDEMLAVAERCLEEFEQTLKARGLA
notes: wild type, recombinant in E. coli, purified; homodimer; PLP enzyme; catalytic Lys288
B1: the Km is on record as 1.69 mM and the kcat worked out at 6.04 s⁻¹.

For the origin of these results see PMC11075132, “A transaminase-mediated aldol reaction and applications in cascades to styryl pyridines” (Catalysis Science & Technology, 2024).
